# According to US20060188526A1, “Method for enhancing the immune response to Staphylococcus aureus infection” (priority 2005, published 2006):
# B1: factor I: purified human complement regulatory protein factor I, serum enzyme that cleaves C3b to iC3b (protein, UniProt P05156 19-583, looked up)
# Complement factor I: KVTYTSQEDLVEKKCLAKKYTHLSCDKVFCQPWQRCIEGTCVCKLPYQCPKNGTAVCATNRRSFPTYCQQKSLECLHPGTKFLNNGTCTAEGKFSVSLKHGNTDSEGIVEVKLVDQDKTMFICKSSWSMREANVACLDLGFQQGADTQRRFKLSDLSINSTECLHVHCRGLETSLAECTFTKRRTMGYQDFADVVCYTQKADSPMDDFFQCVNGKYISQMKACDGINDCGDQSDELCCKACQGKGFHCKSGVCIPSQYQCNGEVDCITGEDEVGCAGFASVTQEETEILTADMDAERRRIKSLLPKLSCGVKNRMHIRRKRIVGGKRAQLGDLPWQVAIKDASGITCGGIYIGGCWILTAAHCLRASKTHRYQIWTTVVDWIHPDLKRIVIEYVDRIIFHENYNAGTYQNDIALIEMKKDGNKKDCELPRSIPACVPWSPYLFQPNDTCIVSGWGREKDNERVFSLQWGEVKLISNCSKFYGNRFYEKEMECAGTYDGSIDACKGDSGGPLVCMDANNVTYVWGVVSWGENCGKPEFPGVYTKVANYFDWISYHVGRPFISQYNV
# What was measured:
# [1] = system: C3b-coated S. aureus phagocytosis by human polymorphonuclear leukocytes (PMN); assay: Phagocytosis assay, C3b-coated S. aureus (purified complement components) incubated with factor H, factor I or both; format: cell-based; settings: compared with untreated C3b-coated S. aureus, factor H 40 μg/ml, factor I 4 μg/ml
# Description: Bacterial strains and growth. Staphylococcus aureus strain Reynolds, capsule polysaccharide serotype 5, was used in all experiments. This strain has a pattern of C3-fragment deposition similar to other capsule polysaccharide serotype 5 and 8 strains—the serotypes that account for the majority of human S. aureus infections. Mid-logarithmic phase bacteria were grown in Columbia 2% NaCl broth at 37° C. with agitation for 2 hours to an optical densitometry of 0.7 to 1.3 at 600 nm. In midlogarithmic phase growth minimal capsule is expressed by strain Reynolds.
# Opsonization with purified complement components. Washed bacteria (1×10^9 CFU in GVBS^++ buffer) were incubated with 0.35% IVIg for 30 min. at room temperature in order to sensitize the bacteria for activating the classical complement pathway. Antibody-coated bacteria were then incubated in 60% DGVBS^++ buffer with the purified human complement proteins C1, C4, C2, and C3 to generate the classical complement pathway C3-convertase and bind C3b to the S. aureus surface. […]
# Phagocytosis assay. […] Bacteria and PMN were visualized by fluorescence microscopy using broad wavelength excitation and emission filters that allow visualization at 100× magnification. Microscope slides were blinded to the reader, and 100 neutrophils per slide were counted to determine the percent of PMN phagocytosing bacteria and total number of S. aureus ingested.
# [2] = molecular target: T1, C3b bound to S. aureus surface (Homo sapiens, UniProt P01024); assay: C3-fragments bound to C3b-coated S. aureus with factor H, factor I or both (ELISA, Western blot); format: biochemical
# T1 construct: purchased Advance Research Technologies, San Diego, Calif
# Description: Opsonization with purified complement components. Washed bacteria (1×10^9 CFU in GVBS^++ buffer) were incubated with 0.35% IVIg for 30 min. at room temperature in order to sensitize the bacteria for activating the classical complement pathway. Antibody-coated bacteria were then incubated in 60% DGVBS^++ buffer with the purified human complement proteins C1, C4, C2, and C3 to generate the classical complement pathway C3-convertase and bind C3b to the S. aureus surface. Bacteria were incubated with C1 (2 μg/ml) at 30° C. for 15 min., and then with C4 (10 μg/ml) at 37° C. for 45 min. Bacteria were then incubated with C2 (0.5 μg/ml) and C3 (10 μg/ml) together at 30° C. for 30 min. C3b-coated staphylococci were then incubated with factor H (40 μg/ml), factor 1 (4 μg/ml), or both factors for 30 min. at 37° C. The bacteria pellet was then sedimented and the supernatants recovered to measure C3-fragments released from the bacteria. The bacteria were then washed and treated with 0.05 ml of 25 mM methylamine (Sigma-Aldrich) for 60 min. at 37° C. to recover C3-fragments bound by ester bonds to the S. aureus surface. The stripped bacteria were sedimented and the supernatants containing previously surface bound C3-fragments were recovered for testing by ELISA and Western blot. […]
# (§1) Analysis of surface-bound and released C3-fragments. ELISA was used to quantitate total C3-fragment amount and iC3b amount as follows. […] Plates were washed 3 three times with PBS/Tween buffer and developed with TMB Plus (Accurate Chemical), stopped with 2.5 N H2SO4, and read at 450 nm.
# Values for C3-fragments bound and iC3b bound to S. aureus opsonized in serum were calculated subtracting the values obtained with heat inactivated serum from the values obtained with NHS. Methylamine supernatants of surface bound C3-fragments were analyzed by Western blot analysis performed with polyclonal goat anti-human C3 antibody (Advanced Research Technologies) and horseradish peroxidase-labeled rabbit anti-goat antibody (Sigma-Aldrich). Bound antibody was detected by enhanced chemiluminescence.
# [3] = molecular target: T1, C3b bound to S. aureus surface; assay: C3-fragments released from C3b-coated S. aureus with factor H, factor I or both (C3 ELISA, Western blot); format: biochemical
# Description: Opsonization with purified complement components. Washed bacteria (1×10^9 CFU in GVBS^++ buffer) were incubated with 0.35% IVIg for 30 min. at room temperature in order to sensitize the bacteria for activating the classical complement pathway. Antibody-coated bacteria were then incubated in 60% DGVBS^++ buffer with the purified human complement proteins C1, C4, C2, and C3 to generate the classical complement pathway C3-convertase and bind C3b to the S. aureus surface. Bacteria were incubated with C1 (2 μg/ml) at 30° C. for 15 min., and then with C4 (10 μg/ml) at 37° C. for 45 min. Bacteria were then incubated with C2 (0.5 μg/ml) and C3 (10 μg/ml) together at 30° C. for 30 min. C3b-coated staphylococci were then incubated with factor H (40 μg/ml), factor 1 (4 μg/ml), or both factors for 30 min. at 37° C. […]
# as §1
# Values for C3-fragments bound and iC3b bound to S. aureus opsonized in serum were calculated subtracting the values obtained with heat inactivated serum from the values obtained with NHS. […] Bound antibody was detected by enhanced chemiluminescence.
# T1 sequence (P01024 749-1663): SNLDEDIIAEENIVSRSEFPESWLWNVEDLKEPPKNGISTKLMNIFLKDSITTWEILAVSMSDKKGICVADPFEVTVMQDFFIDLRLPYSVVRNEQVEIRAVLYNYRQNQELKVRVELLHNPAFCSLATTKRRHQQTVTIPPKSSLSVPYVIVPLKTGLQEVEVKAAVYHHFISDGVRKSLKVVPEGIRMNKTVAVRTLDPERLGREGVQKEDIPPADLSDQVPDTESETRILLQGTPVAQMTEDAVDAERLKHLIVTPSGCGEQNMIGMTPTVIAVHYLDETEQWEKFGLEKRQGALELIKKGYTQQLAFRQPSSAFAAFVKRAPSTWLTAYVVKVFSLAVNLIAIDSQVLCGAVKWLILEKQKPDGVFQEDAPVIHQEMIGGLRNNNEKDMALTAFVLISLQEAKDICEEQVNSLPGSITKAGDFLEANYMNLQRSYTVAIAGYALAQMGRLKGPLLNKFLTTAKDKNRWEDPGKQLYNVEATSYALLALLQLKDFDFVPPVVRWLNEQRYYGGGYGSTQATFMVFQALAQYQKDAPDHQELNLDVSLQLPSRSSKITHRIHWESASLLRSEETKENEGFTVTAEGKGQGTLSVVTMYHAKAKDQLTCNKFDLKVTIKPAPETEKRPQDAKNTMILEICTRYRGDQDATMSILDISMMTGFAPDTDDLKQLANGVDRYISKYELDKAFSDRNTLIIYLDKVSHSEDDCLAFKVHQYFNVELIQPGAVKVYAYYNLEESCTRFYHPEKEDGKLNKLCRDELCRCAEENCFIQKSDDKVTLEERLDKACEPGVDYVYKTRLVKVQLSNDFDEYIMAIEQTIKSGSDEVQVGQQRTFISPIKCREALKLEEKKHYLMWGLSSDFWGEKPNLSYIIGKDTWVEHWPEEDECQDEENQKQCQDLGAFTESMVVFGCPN
# T1 sequence (P01024 23-667): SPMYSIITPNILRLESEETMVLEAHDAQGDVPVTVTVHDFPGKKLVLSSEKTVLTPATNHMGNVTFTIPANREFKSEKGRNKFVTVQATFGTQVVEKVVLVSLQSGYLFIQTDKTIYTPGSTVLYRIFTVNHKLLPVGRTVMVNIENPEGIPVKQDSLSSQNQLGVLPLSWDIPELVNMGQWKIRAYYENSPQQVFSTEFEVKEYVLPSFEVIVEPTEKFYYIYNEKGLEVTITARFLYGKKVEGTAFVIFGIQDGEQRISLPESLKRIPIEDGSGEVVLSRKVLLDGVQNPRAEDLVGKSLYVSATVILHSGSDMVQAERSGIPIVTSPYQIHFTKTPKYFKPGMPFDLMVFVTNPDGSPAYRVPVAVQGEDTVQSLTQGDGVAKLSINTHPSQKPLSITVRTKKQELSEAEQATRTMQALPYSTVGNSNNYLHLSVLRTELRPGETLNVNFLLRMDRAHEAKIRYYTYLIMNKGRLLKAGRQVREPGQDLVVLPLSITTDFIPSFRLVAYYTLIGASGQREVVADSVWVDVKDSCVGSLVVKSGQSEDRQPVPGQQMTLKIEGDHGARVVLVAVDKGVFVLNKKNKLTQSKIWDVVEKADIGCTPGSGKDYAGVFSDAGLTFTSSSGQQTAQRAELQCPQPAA
molecule,measurement,setting,value
B1,decrease of percent of neutrophils phagocytosing C3b-coated S. aureus,[1]; FIG. 3A,29%
same,decrease of number of C3b-coated S. aureus phagocytosed by 100 neutrophils,[1]; FIG. 3B,40%
same,decrease of amount of total C3-fragments bound to C3b-coated S. aureus,"[2]; C3 ELISA, compared to control bacteria (no factor H or I exposure), FIG. 4B",58%
same,"types of C3-fragments bound to the S. aureus surface, Western blot","[2]; compared with untreated C3b-coated S. aureus, FIG. 4C",less C3b and more iC3b
same,increase of amount of iC3b bound to S. aureus,"[2]; iC3b ELISA, compared with untreated C3b-coated bacteria, FIG. 4A",75%
same,amounts of C3-fragments shed from the S. aureus surface,"[3]; C3 ELISA, compared with incubation in buffer alone, FIG. 5A",increased significantly
same,"form of C3-fragments shed, Western blot with polyclonal anti-C3 antibody",[3]; FIG. 5B,likely iC3b or possibly C3c
